Results: patent US20050064507A1, “Determining kinase specificity” (priority 2003, published 2005)

target: T1, PKC-epsilon (Homo sapiens, UniProt Q02156); experiment: In vitro kinase assay: peptide phosphorylation by PKC-epsilon; assay type: biochemical; conditions: normalized to best substrate
T1 construct: purchased Calbiochem
T1 sequence (Q02156 1-737): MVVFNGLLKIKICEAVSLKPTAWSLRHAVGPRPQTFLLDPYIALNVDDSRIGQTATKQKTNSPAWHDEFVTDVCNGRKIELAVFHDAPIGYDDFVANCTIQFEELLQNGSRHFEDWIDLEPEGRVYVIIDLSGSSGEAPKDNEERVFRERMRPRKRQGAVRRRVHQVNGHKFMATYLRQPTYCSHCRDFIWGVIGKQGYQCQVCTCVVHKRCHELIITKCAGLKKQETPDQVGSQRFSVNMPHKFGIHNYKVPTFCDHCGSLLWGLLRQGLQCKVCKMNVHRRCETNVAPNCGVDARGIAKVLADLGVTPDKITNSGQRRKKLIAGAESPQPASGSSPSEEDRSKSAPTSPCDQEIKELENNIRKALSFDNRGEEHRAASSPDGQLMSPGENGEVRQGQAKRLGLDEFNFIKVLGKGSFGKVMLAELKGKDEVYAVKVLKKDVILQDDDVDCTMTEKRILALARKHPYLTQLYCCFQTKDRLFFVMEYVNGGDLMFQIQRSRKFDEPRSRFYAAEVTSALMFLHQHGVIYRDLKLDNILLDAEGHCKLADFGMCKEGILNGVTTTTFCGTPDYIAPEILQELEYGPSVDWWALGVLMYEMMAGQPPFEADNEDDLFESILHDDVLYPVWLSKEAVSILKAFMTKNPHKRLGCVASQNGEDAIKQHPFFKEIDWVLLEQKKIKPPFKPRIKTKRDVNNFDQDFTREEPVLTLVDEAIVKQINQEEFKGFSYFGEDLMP
How it was run: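 Active PKC-epsilon (5-20 ng per well) phosphorylated biotinylated peptides in duplicate at 30° C. for about 10 minutes. The PKC buffer was 100 mM HEPES, 0.05% Triton-X100, 1 mM CaCl2, 20 mM MgCl2, 0.2 mg/ml phosphatidyl serine and PMA 100 ng/ml, with 100 μM ATP including ^32P-gamma ATP. Peptides were captured on streptavidin plates, washed, and counted by scintillation, with stoichiometry kept below 5%.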

First: 81 (KRERKTSSKSSVRKRR) [compound 81]
Second: 87 (RQGKRKTSIKRDTVNPL) [compound 87]
The PKC-epsilon phosphorylation of the first is higher: 59% for the first, 31% for the second.

First: 88 (KKPFKLSGLSFKRNRKE) [compound 88]
Second: 91 (VHYTSKDTLRKRHYWR) [compound 91]
The PKC-epsilon phosphorylation of the first is lower: 44% for the first, 49% for the second.

First: 97 (KKRSSKKEASMKKVVRP) [compound 97]
Second: 98 (AGPLRKSSLKKGGRL) [compound 98]
The PKC-epsilon phosphorylation of the first is lower: 16% for the first, 34% for the second.

same assay, conditions: peptide concentration 1 uM

First: 148 (RELEQLKAEYLERRASRRRA) [compound 148]
Second: 149 (RVVQSVKHTKRKSSTVMK) [compound 149]
The “phosphorylation by PKC epsilon” value of the first is higher: 33 for the first, 27 for the second.

First: 150 (VDPFYEMLAARKKRISVKKK) [compound 150]
Second: 151 (PQNSLKASNRKKKRTSFKRK) [compound 151]
The “phosphorylation by PKC epsilon” value of the first is lower: 20 for the first, 24 for the second.

Compared with “152 (DLIEGRKGAQIVKRASLKRG) [compound 152]”, “153 (TYLLPDKSRQGKRKTSIKRD) [compound 153]” is lower in “phosphorylation by PKC epsilon” value: 25 for the first, 24 for the second.

system: PKC; experiment: In vitro phosphorylation by PKC (average of isoforms alpha, epsilon, delta, theta); assay type: biochemical; conditions: average of PKC-alpha, -epsilon, -theta, normalized to best substrate

Going from 81 (KRERKTSSKSSVRKRR) [compound 81] to 87 (RQGKRKTSIKRDTVNPL) [compound 87], the PKC average falls from 56% to 47%.

Compared with 88 (KKPFKLSGLSFKRNRKE) [compound 88], 91 (VHYTSKDTLRKRHYWR) [compound 91] is lower in PKC average: 43% for the first, 40% for the second.

Compared with 97 (KKRSSKKEASMKKVVRP) [compound 97], 98 (AGPLRKSSLKKGGRL) [compound 98] is lower in PKC average: 28% for the first, 27% for the second.

same assay, conditions: average over PKC-theta, -epsilon and -alpha at 10 and 1 uM peptide, relative to best substrate

Compared with “148 (RELEQLKAEYLERRASRRRA) [compound 148]”, 149 (RVVQSVKHTKRKSSTVMK) [compound 149] is lower in “average (phosphorylation by PKC-theta, -delta, -epsilon, -alpha)” value: 26 for the first, 25 for the second.

“150 (VDPFYEMLAARKKRISVKKK) [compound 150]” and “151 (PQNSLKASNRKKKRTSFKRK) [compound 151]” are the same in “average (phosphorylation by PKC-theta, -delta, -epsilon, -alpha)” value: 24 for the first, 24 for the second.

“152 (DLIEGRKGAQIVKRASLKRG) [compound 152]” and “153 (TYLLPDKSRQGKRKTSIKRD) [compound 153]” are the same in “average (phosphorylation by PKC-theta, -delta, -epsilon, -alpha)” value: 23 for the first, 23 for the second.

target: T2, PKC-alpha (Homo sapiens, UniProt P17252); experiment: In vitro kinase assay: peptide phosphorylation by PKC-alpha; assay type: biochemical; conditions: normalized to best substrate
T2 construct: purchased Calbiochem
How it was run: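 Purified active human PKC-alpha, 5-20 ng per well, phosphorylated biotinylated peptides in duplicate wells with 100 μM ATP including 1 uCi/well of ^32P-gamma ATP. The buffer was 100 mM HEPES, 0.05% Triton-X100, 1 mM CaCl2, 20 mM MgCl2, 0.2 mg/ml phosphatidyl serine and PMA 100 ng/ml. Reactions ran at 30° C., usually for 10 minutes, keeping stoichiometry under 5%. They were stopped with ATP/EDTA, captured on streptavidin plates, washed, and counted by scintillation.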

Going from 81 (KRERKTSSKSSVRKRR) [compound 81] to 87 (RQGKRKTSIKRDTVNPL) [compound 87], the PKC alpha phosphorylation falls from 62% to 46%.

Going from 88 (KKPFKLSGLSFKRNRKE) [compound 88] to 91 (VHYTSKDTLRKRHYWR) [compound 91], the PKC alpha phosphorylation rises from 48% to 60%.

Compared with 97 (KKRSSKKEASMKKVVRP) [compound 97], 98 (AGPLRKSSLKKGGRL) [compound 98] is lower in PKC alpha phosphorylation: 37% for the first, 25% for the second.

same assay, conditions: peptide concentration 1 uM

Going from “148 (RELEQLKAEYLERRASRRRA) [compound 148]” to 149 (RVVQSVKHTKRKSSTVMK) [compound 149], the “phosphorylation by PKC alpha” value rises from 19 to 33.

Going from “150 (VDPFYEMLAARKKRISVKKK) [compound 150]” to “151 (PQNSLKASNRKKKRTSFKRK) [compound 151]”, the “phosphorylation by PKC alpha” value rises from 12 to 17.

Going from “152 (DLIEGRKGAQIVKRASLKRG) [compound 152]” to “153 (TYLLPDKSRQGKRKTSIKRD) [compound 153]”, the “phosphorylation by PKC alpha” value rises from 13 to 17.

same assay, conditions: peptide concentration 10 uM

Going from “148 (RELEQLKAEYLERRASRRRA) [compound 148]” to 149 (RVVQSVKHTKRKSSTVMK) [compound 149], the “phosphorylation by PKC alpha” value rises from 22 to 52.

First: 150 (VDPFYEMLAARKKRISVKKK) [compound 150]
Second: 151 (PQNSLKASNRKKKRTSFKRK) [compound 151]
The “phosphorylation by PKC alpha” value of the first is lower: 11 for the first, 16 for the second.

First: 152 (DLIEGRKGAQIVKRASLKRG) [compound 152]
Second: 153 (TYLLPDKSRQGKRKTSIKRD) [compound 153]
The “phosphorylation by PKC alpha” value of the first is lower: 12 for the first, 22 for the second.
